Assay results published in patent publication US20030143656A1.

Columns and labels:
[1] = target: 412E-p70 S6K-T2 (His-tagged, insect cells) (human) (UniProt P23443); assay: SPR, His-PDK1 injected over 412E-p70 S6K-T2 amine-coupled to a CM5 chip, steady state
[2] = target: GST-PDK1 I119A (human), O15530; assay: cell-based or functional assay

Chain of 412E-p70 S6K-T2 (His-tagged, insect cells) (human) (P23443 other isoform, or with tags, fused parts or gaps): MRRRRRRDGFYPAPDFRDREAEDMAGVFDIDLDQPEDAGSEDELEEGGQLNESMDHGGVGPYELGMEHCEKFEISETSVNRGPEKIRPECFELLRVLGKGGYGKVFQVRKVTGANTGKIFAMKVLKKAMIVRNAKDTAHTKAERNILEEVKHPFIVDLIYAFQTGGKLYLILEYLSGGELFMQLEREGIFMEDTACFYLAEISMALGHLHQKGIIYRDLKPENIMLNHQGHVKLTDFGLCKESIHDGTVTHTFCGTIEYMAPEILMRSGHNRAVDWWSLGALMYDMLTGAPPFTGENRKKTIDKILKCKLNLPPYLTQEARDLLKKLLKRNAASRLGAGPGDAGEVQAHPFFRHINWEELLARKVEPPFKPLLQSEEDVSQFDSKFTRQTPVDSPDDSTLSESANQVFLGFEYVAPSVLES

B1: His-PDK1 (enzyme, human, UniProt O15530 52-556, looked up, not shown: small tags and cut ends)
chain: DGTAAEPRPGAGSLQHAQPPPQPRKKRPEDFKFGKILGEGSFSTVVLARELATSREYAIKILEKRHIIKENKVPYVTRERDVMSRLDHPFFVKLYFTFQDDEKLYFGLSYAKNGELLKYIRKIGSFDETCTRFYTAEIVSALEYLHGKGIIHRDLKPENILLNEDMHIQITDFGTAKVLSPESKQARANSFVGTAQYVSPELLTEKSACKSSDLWALGCIIYQLVAGLPPFRAGNEYLIFQKIIKLEYDFPEKFFPKARDLVEKLLVLDATKRLGCEEMEGYGPLKAHPFFESVTWENLHQQTPPKLTAYLPAMSEDDEDCYGNYDNLLSQFGCMQVSSSSSSHSLSASDTGLPQRSGSNIEQYIHDLDSNSFELDLQFSEDEKRLLLEKQAGGNPWHQFVENNLILKMGPVDKRKGLFARRRQLLLTEGPHLYYVDPVNKVLKGEIPWSQELRPEAKNFKTFFVHTPNRTYYLMDPSGNAHKWCRKIQEVWRQRYQSHPDAAVQ
- Kd [1]: 8 µM

Binder: REPRILSEEEQEMFRDFDYIADWC [PIFtide]
- inhibition by 2 µM PIFtide of the activation of S6K1-T2[T412E] and SGK1[T422D] by the PDK1 mutant [2]: 50%
- inhibition by 35 µM PIFtide of the activation of S6K1-T2[T412E] and SGK1[T422D] by the PDK1 mutant [2]: > 95%
- stimulation of the PDK1 mutant towards T308tide by PIF [2]: 2 fold
